Values of other authors in article PMC12757075.
pKd: −log10 of the molar value.

Biological target: actin filament barbed end (Oryctolagus cuniculus) (UniProt P68135)

- pKd: 8.04
Substance: VASP (from UniProt P50552)
